Assay results taken from patent publication US20140274782A1, “AFFINITY REAGENTS AND METHODS FOR DETECTION, PURIFICATION, AND PROTEOMIC ANALYSIS OF METHYLATED PROTEINS” (The Board of Trustees of the Leland Stanford Junior …, priority 2013, published 2014).
Blank lines part the entries; values can stand above or below the molecule they belong to.

Columns and labels:
3×MBT domain of L3MBTL1 = experiment: Triple SILAC pull-down, 3xMBT/3xMBTD355N ratio (cytoplasmic, nuclear and chromatin fractions of 293T cells); assay type: binding, human; settings: SILAC ratio, pull-down 3xMBT vs 3xMBTD355N; for 3xMBT/D355N UNC Heavy: experiment with UNC0638 in heavy SILAC media; for 3xMBT/D355N UNC Light: experiment with UNC0638 in light SILAC media;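 on all read-outs here: proteins quantified with MaxQuant, requiring at least two unique peptides and quantification in both label directions, normalized to the mean of proteins from a digested loading control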
G9a and GLP = target: T1, G9a and GLP (Homo sapiens, UniProt Q96KQ7+Q9H9B1); experiment: Triple SILAC pull-down after UNC0638 treatment of 293T cells, DMSO/UNC0638 ratio of protein captured by 3×MBT; assay type: cell-based; parameters: endogenous in cells; host or cells: HEK 293T; settings: for Relative to UNC0638 UNC Heavy / Relative to UNC0638 UNC Light: SILAC ratio DMSO/UNC0638 of protein pulled down with 3xMBT; for Relative to UNC0638 UNC Heavy: UNC0638 in heavy SILAC media; for Relative to UNC0638 UNC Light: UNC0638 in light SILAC media; for Relative to UNC0638 Average: average of UNC Light and UNC Heavy experiments;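 on all read-outs here: mass spectrometry (Q-Exactive) SILAC quantitation, DMSO/UNC0638 ratio computed after subtracting 3×MBTD355N mutant pull-down background, only proteins with at least twofold 3×MBT over mutant signal considered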
T1 sequence (Q96KQ7 2-1210 limits assumed): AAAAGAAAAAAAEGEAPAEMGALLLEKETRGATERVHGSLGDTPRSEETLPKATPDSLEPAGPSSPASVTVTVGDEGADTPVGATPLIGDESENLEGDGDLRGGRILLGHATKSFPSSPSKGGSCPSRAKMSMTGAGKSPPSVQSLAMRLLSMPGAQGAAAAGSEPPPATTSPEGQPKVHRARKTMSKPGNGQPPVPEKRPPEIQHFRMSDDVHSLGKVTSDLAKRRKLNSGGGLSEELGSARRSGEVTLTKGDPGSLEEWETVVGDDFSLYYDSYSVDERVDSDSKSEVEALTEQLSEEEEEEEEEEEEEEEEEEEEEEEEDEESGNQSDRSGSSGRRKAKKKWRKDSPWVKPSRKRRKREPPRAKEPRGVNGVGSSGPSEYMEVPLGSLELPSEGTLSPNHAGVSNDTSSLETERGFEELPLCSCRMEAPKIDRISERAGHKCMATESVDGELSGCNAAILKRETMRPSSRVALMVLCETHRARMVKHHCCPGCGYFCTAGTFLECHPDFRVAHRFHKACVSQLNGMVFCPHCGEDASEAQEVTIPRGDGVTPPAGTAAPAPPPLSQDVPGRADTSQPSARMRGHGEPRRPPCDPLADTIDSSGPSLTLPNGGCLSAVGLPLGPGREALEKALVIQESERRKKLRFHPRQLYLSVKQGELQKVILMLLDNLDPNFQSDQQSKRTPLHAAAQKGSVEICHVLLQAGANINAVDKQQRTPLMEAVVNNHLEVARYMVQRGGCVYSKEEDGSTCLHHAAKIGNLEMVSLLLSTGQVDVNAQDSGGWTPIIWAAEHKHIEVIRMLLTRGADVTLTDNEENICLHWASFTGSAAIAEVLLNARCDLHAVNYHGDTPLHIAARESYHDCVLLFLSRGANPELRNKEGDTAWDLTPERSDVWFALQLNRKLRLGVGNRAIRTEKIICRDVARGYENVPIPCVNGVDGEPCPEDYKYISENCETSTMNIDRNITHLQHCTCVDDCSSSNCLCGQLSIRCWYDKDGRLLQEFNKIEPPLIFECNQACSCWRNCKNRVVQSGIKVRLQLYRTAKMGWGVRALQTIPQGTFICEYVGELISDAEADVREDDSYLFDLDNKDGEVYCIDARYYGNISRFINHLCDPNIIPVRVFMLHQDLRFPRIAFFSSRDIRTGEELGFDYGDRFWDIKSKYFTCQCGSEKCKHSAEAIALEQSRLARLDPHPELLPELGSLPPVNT
T1 sequence (Q9H9B1 2-1298 limits assumed): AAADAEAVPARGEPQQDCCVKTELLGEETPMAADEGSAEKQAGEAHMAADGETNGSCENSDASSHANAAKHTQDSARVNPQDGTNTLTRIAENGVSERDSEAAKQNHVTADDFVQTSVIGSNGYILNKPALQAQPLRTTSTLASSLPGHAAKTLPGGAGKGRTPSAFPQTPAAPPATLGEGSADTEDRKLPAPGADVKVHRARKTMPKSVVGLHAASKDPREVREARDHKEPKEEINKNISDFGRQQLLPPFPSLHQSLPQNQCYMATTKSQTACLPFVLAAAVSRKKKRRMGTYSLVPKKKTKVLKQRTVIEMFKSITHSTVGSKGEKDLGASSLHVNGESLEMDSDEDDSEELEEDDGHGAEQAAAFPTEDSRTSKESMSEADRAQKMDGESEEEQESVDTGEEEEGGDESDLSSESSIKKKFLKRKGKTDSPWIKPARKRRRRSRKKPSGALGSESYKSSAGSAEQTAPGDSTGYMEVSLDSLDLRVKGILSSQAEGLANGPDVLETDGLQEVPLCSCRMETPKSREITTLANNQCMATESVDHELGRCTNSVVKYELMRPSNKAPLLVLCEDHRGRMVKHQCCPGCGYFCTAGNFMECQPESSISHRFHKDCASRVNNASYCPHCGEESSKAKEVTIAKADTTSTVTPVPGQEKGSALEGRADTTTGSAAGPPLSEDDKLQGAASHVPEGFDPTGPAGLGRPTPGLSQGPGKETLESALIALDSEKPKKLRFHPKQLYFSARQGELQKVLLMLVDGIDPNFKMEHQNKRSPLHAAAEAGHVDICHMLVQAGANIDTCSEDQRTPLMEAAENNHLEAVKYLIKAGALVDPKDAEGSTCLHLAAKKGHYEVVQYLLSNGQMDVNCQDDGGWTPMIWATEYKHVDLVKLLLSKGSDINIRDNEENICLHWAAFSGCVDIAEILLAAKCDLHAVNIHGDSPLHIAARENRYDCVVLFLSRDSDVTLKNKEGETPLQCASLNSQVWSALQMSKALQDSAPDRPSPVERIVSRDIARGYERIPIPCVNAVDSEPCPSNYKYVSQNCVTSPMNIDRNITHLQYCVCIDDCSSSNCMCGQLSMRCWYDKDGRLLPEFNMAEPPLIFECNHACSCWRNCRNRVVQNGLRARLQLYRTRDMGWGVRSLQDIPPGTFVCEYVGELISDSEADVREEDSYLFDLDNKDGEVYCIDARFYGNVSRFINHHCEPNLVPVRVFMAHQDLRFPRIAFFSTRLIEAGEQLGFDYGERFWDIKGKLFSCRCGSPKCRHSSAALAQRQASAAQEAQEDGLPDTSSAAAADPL

- Relative to UNC0638 UNC Heavy (G9a and GLP): 1.12 log base 2
- Relative to UNC0638 UNC Light (G9a and GLP): 0.31 log base 2
- Relative to UNC0638 Average (G9a and GLP): 0.71 log base 2
- Candidate G9a/GLP target (G9a and GLP; reduced association with 3xMBT after UNC0638 treatment): ✓
B1: API5 (protein, UniProt Q9BZZ5 2-524, looked up)
Apoptosis inhibitor 5: PTVEELYRNYGILADATEQVGQHKDAYQVILDGVKGGTKEKRLAAQFIPKFFKHFPELADSAINAQLDLCEDEDVSIRRQAIKELPQFATGENLPRVADILTQLLQTDDSAEFNLVNNALLSIFKMDAKGTLGGLFSQILQGEDIVRERAIKFLSTKLKTLPDEVLTKEVEELILTESKKVLEDVTGEEFVLFMKILSGLKSLQTVSGRQQLVELVAEQADLEQTFNPSDPDCVDRLLQCTRQAVPLFSKNVHSTRFVTYFCEQVLPNLGTLTTPVEGLDIQLEVLKLLAEMSSFCGDMEKLETNLRKLFDKLLEYMPLPPEEAENGENAGNEEPKLQFSYVECLLYSFHQLGRKLPDFLTAKLNAEKLKDFKIRLQYFARGLQVYIRQLRLALQGKTGEALKTEENKIKVVALKITNNINVLIKDLFHIPPSYKSTVTLSWKPVQKVEIGQKRASEDTTSGSPPKKSSAGPKRDARQIYNPPSGKYSSNLGNFNYEQRGAFRGSRGGRGWGTRGNRSRGRLY
- 3xMBT/D355N UNC Heavy (3×MBT domain of L3MBTL1): 3.54 log base 2
- 3xMBT/D355N UNC Light (3×MBT domain of L3MBTL1): 2.67 log base 2

- Relative to UNC0638 UNC Heavy (G9a and GLP): 0.17 log base 2
- Relative to UNC0638 UNC Light (G9a and GLP): 0.15 log base 2
- Relative to UNC0638 Average (G9a and GLP): 0.16 log base 2
B2: CPSF1 (protein, UniProt Q10570 1-1443, looked up)
Cleavage and polyadenylation …: MYAVYKQAHPPTGLEFSMYCNFFNNSERNLVVAGTSQLYVYRLNRDAEALTKNDRSTEGKAHREKLELAASFSFFGNVMSMASVQLAGAKRDALLLSFKDAKLSVVEYDPGTHDLKTLSLHYFEEPELRDGFVQNVHTPRVRVDPDGRCAAMLVYGTRLVVLPFRRESLAEEHEGLVGEGQRSSFLPSYIIDVRALDEKLLNIIDLQFLHGYYEPTLLILFEPNQTWPGRVAVRQDTCSIVAISLNITQKVHPVIWSLTSLPFDCTQALAVPKPIGGVVVFAVNSLLYLNQSVPPYGVALNSLTTGTTAFPLRTQEGVRITLDCAQATFISYDKMVISLKGGEIYVLTLITDGMRSVRAFHFDKAAASVLTTSMVTMEPGYLFLGSRLGNSLLLKYTEKLQEPPASAVREAADKEEPPSKKKRVDATAGWSAAGKSVPQDEVDEIEVYGSEAQSGTQLATYSFEVCDSILNIGPCANAAVGEPAFLSEEFQNSPEPDLEIVVCSGHGKNGALSVLQKSIRPQVVTTFELPGCYDMWTVIAPVRKEEEDNPKGEGTEQEPSTTPEADDDGRRHGFLILSREDSTMILQTGQEIMELDTSGFATQGPTVFAGNIGDNRYIVQVSPLGIRLLEGVNQLHFIPVDLGAPIVQCAVADPYVVIMSAEGHVTMFLLKSDSYGGRHHRLALHKPPLHHQSKVITLCLYRDLSGMFTTESRLGGARDELGGRSGPEAEGLGSETSPTVDDEEEMLYGDSGSLFSPSKEEARRSSQPPADRDPAPFRAEPTHWCLLVRENGTMEIYQLPDWRLVFLVKNFPVGQRVLVDSSFGQPTTQGEARREEATRQGELPLVKEVLLVALGSRQSRPYLLVHVDQELLIYEAFPHDSQLGQGNLKVRFKKVPHNINFREKKPKPSKKKAEGGGAEEGAGARGRVARFRYFEDIYGYSGVFICGPSPHWLLVTGRGALRLHPMAIDGPVDSFAPFHNVNCPRGFLYFNRQGELRISVLPAYLSYDAPWPVRKIPLRCTAHYVAYHVESKVYAVATSTNTPCARIPRMTGEEKEFETIERDERYIHPQQEAFSIQLISPVSWEAIPNARIELQEWEHVTCMKTVSLRSEETVSGLKGYVAAGTCLMQGEEVTCRGRILIMDVIEVVPEPGQPLTKNKFKVLYEKEQKGPVTALCHCNGHLVSAIGQKIFLWSLRASELTGMAFIDTQLYIHQMISVKNFILAADVMKSISLLRYQEESKTLSLVSRDAKPLEVYSVDFMVDNAQLGFLVSDRDRNLMVYMYLPEAKESFGGMRLLRRADFHVGAHVNTFWRTPCRGATEGLSKKSVVWENKHITWFATLDGGIGLLLPMQEKTYRRLLMLQNALTTMLPHHAGLNPRAFRMLHVDRRTLQNAVRNVLDGELLNRYLYLSTMERSELAKKIGTTPDIILDDLLETDRVTAHF
- 3xMBT/D355N UNC Heavy (3×MBT domain of L3MBTL1): 2.44 log base 2
- 3xMBT/D355N UNC Light (3×MBT domain of L3MBTL1): 3.15 log base 2

- Relative to UNC0638 UNC Heavy (G9a and GLP): 0.14 log base 2
- Relative to UNC0638 UNC Light (G9a and GLP): 0.17 log base 2
- Relative to UNC0638 Average (G9a and GLP): 0.15 log base 2
B3: SYNCRIP (protein, UniProt O60506 2-623, looked up)
Heterogeneous nuclear …: ATEHVNGNGTEEPMDTTSAVIHSENFQTLLDAGLPQKVAEKLDEIYVAGLVAHSDLDERAIEALKEFNEDGALAVLQQFKDSDLSHVQNKSAFLCGVMKTYRQREKQGTKVADSSKGPDEAKIKALLERTGYTLDVTTGQRKYGGPPPDSVYSGQQPSVGTEIFVGKIPRDLFEDELVPLFEKAGPIWDLRLMMDPLTGLNRGYAFVTFCTKEAAQEAVKLYNNHEIRSGKHIGVCISVANNRLFVGSIPKSKTKEQILEEFSKVTEGLTDVILYHQPDDKKKNRGFCFLEYEDHKTAAQARRRLMSGKVKVWGNVGTVEWADPIEDPDPEVMAKVKVLFVRNLANTVTEEILEKAFSQFGKLERVKKLKDYAFIHFDERDGAVKAMEEMNGKDLEGENIEIVFAKPPDQKRKERKAQRQAAKNQMYDDYYYYGPPHMPPPTRGRGRGGRGGYGYPPDYYGYEDYYDYYGYDYHNYRGGYEDPYYGYEDFQVGARGRGGRGARGAAPSRGRGAAPPRGRAGYSQRGGPGSARGVRGARGGAQQQRGRGVRGARGGRGGNVGGKRKADGYNQPDSKRRQTNNQNWGSQPIAQQPLQGGDHSGNYGYKSENQEFYQDTFGQQWK
- 3xMBT/D355N UNC Heavy (3×MBT domain of L3MBTL1): 2.28 log base 2
- 3xMBT/D355N UNC Light (3×MBT domain of L3MBTL1): 3.48 log base 2
